This passage reports protein production results from a protein production outcome set (Wang et al. 2014).

The series in a line: label from the status in PepcDB records.

For the sequence “MGQKIHAFMFPWFAFGHMTPYLHLGNKLAEKGHRVTFLLPKKAQKQLEHQNLFPHGIVFHPLVIPHVDGLPAGAETASDIPISLVKFLSIAMDLTRDQIEAAIGALRPDLILFDLAHWVPEMAKALKVKSMLYNVMSATSIAHDLVPGGELGVAPPGYPSSKALYREHDAHALLTFSGFYKRFYHRFTTGLMNCDFISIRTCEEIEGKFCDYIESQYKKKVLLTGPMLPEPDKSKPLEDQWSHWLSGFGQGSVVFCALGSQTILEKNQFQELCLGIELTGLPFLVAVKPPKGANTIHEALPEGFEERVKGRGIVWGEWVQQPSWQPLILAHPSVGCFVSHCGFGSMWESLMSDCQIVFIPVLNDQVLTTRVMTEELEVSVEVQREETGWFSKENLSGAIMSLMDQDSEIGNQVRRNHSKLKETLASPGLLTGYTDKFVDTLENLVNEQGYIS”, the protein production entry is reported as “failed”.

With “MGRAFEYRRAAKEKRWDKMSKVFPKLAKAITLAAKDGGSEPDTNAKLRTAILNAKAQNMPKDNIDAAIKRASSKEGNLSEITYEGKANFGVLIIMECMTDNPTRTIANLKSYFNKTQGASIVPNGSLEFMFNRKSVFECLKNEVENLKLSLEDLEFALIDYGLEELEEVEDKIIIRGDYNSFKLLNEGFESLKLPILKASLQRIATTPIELNDEQMELTEKLLDRIEDDDDVVALYTNIE”, the protein production entry was “failed”.

Consider “MGRDYQSEALAEQHLREAHLLAPDHAAVLIGLYRFYFYKGRLGEALEVAQACLCKAARDNGLASDWRKVRRGDAEFSSYSAVLPRFYLFALKAYAYLQMRLGQLDEGHAAVEKLLELDPTDKVGAAVLLDVWRRIGLEHHHHHH”, for which the protein production entry is “failed”.

Regarding “MGREFIPLFEDWAATYDQTVQGLDIQYKEAFRGYDHILDAIVRKSGTHVLEFGPGTGNLTAKLLDAGKTVFGIEPSPAMRKLASDKLSGRTEIVDGDFLTFPEPPFQADTIVSSYAFHHLTDEEKRAAIKQYGKYLHLHDKIVFADTVFENAQAYQQAIDKARSQGFYQLANDLETEHYPTLDALKEMFTAEGFAVRFTQQNDFVWIMEAIKRLEHHHHHH”, the protein production entry is given as “failed”.

As to “MGRISSGGMMFKAITTVAALVIATSAMAQDDLTISSLAKGETTKAAFNQMVQGHKLPAWVMKGGTYTPAQTVTLGDETYQVMSACKPHDCGSQRIAVMWSEKSNQMTGLFSTIDEKTSQEKLTWLNVNDALSIDGKTVLFAALTGSLENHPDGFNFK”, the protein production entry is “not failed”.

Regarding “MGRKDSLDLEEEAASGASSALEAGGSSGLEDVLPLLQQADELHRGDEQGKREGFQLLLNNKLVYGSRQDFLWRLARAYSDMCELTEEVSEKKSYALDGKEEAEAALEKGDESADCHLWYAVLCGQLAEHESIQRRIQSGFSFKEHVDKAIALQPENPMAHFLLGRWCYQVSHLSWLEKKTATALLESPLSATVEDALQSFLKAEELQPGFSKAGRVYISKCYRELGKNSEARWWMKLALELPDVTK”, the protein production entry is given as “failed”.

As for “MGRKQLNHIKCRENCSLVAKAGFRHRRVIIQGIQSAMVQDSDEILFVEEEDPVAGSLPSDVSPWKVLVADDDPEVFTVTRLVLSGFVFAGRGVSLLYAGSAAEATEILRQQSDIAVALLDVVMETEDAGLKLVKVIRDDLGNSHLRIVLRTGQPGQAPEHDVVMRYDINDYRSKTELTDTKLITTLVSSLRSYQQIEALERSRAELREARDTLEIRVAERTRDLRESEARLRSILDASVFPILVLSEEGDRVRFLNDHAGEALGWALLENTTSTLPDLWENPVDGARLLARTVQRGRVLDCEFRLRGAGGEPFWALVSTIAMSYDGQPAVLLSFNDITVHKQREEAWQRLALTDPLTGLGNRRLLFDRGILEVARARRGCWPLSGLMIDLDHFKRINDTQGHAAGDAILRTLADTLRESLREIDVIARVGGEEFAILLPDTSLTAAHEVGERLRLSCQIPQPVGGPVTISVGISTLHPEDRGLGDMLSRADDALYRAKRNGRDRVEIADDSEDNQDVSP”, the protein production result is “failed”.

On to “MGRKRGNAIMEKTKIDIISGFLGAGKTTLIKKLLKDAFQGEQVVLIENEFGEIGIDGGFLKEAGIQIREMNSGCICCSLVGDFGASLKEVISKYHPDRILIEPSGVGKLSDVIKAVQGVEEETGLVLNSYTTVVDAKKCKMYMRNFGEFFNNQVEYAGAIIMSRTDIVDEAKAQASLELLREINSKAAIITTPIEKLEGKKLLEVMEHPVSLADELMEEEEVCPECGHVHEHGEHHHHDHDEECGCGHDHDHEEHEHHHHDHDEECGCGHDHAHEEHEHHHHDHDHECGCGHDHHDHHHHHADEVFTSWGRETIKKYTKENLEKMLEALSASDEYGIILRAKGMLPAEDGTWIYFDMVPEETEIREGAPEYTGRLCVIGSKLNEDKLAELFGL”, for which the protein production entry is given as “failed”.

For “MGRKSNRAKEKKQRRLEERAAMDAVCAKVDAANKLEDPLSAMPVFKKYDRNGLNLQIECKRVTALSPDTVEWAYELTRANMQTLYEQSEWGWKEREKREEMKDERAWYLLARDADSTPLAFSHFRFDVECGDEVLYCYEVQLESKVRRKGLGKFLIQILQLIANSTQMKKVMLTVFKHNHGAYQFFREALQFEIDETSPSMSGCCGEDCSYEILSRRTKYGEVSGHAHGGHCGGCCH”, the protein production result was “not failed”.

For the sequence “MGRNFLAILYFCFLFLGFLSCSNVKSMSLMAIGNYEYVRGNYQNAISNYYNLVEDEKYSAWGYYNLGVVYYSLGEYESSLRIFSYAKKTNDIFLNFNVNYNEGVIYYNQGLYHKAEVAFKEALKINPGSYNAKYNLELAIIKKRAVRDSLNSLSVEKGKNFVESNENFLRYIENLERVVWLRKIDENLAVPKEDW”, the protein production result is listed as “failed”.

On to “MGRTPETHVIDFRAAEQLLAARDPRGAVKLLDPVIAAHPENTAARLLRARAFFAAAQLRPAELEFTIVLEREPDNAFAHFALARTYERQLRPDQAKRHFRLAAALDPNPQYLKAARLEHHHHHH”, for which the protein production entry is listed as “not failed”.

For “MGRVRLQANQMEWRPGIYVGEGTTIASSAQLEPPLWIGQHCYIGEEVQLKAGTVIGDESRIEAGACLDRAVVWNRVQIGQRSHLEGCVLADGVRLERHVQIHEGAVIGSGCRLQEEAQVQAEVRIWPRKQIEAGAILEHHHHHH”, the protein production entry is “failed”.

As to “MGSASIGYQFGISARFYGNFNLSSDITVSSLPCKLDVSIKSLFSAPSSTHKEYSNRARVCSLPNTDGYCDEKFETPILDSIETPLQLKNLSVKELKLLADEIRTELHSVLWKKTQKSMNPSFAAIELTLALHYVFRAPVDNILWDAVEQTYAHKVLTRRWSAIPSRQNSGISGVTSRLESEYDSFGTGHGCNSISAGLGLAVARDMKGKRDRVVAVIDNVTITAGQAYEAMSNAGYLDSNMIVILNDSRHSLHPNMEEGSKASISALSSIMSKIQSSKVFRKFRELAKAMTKRIGKGMYEWAAKVDEYARGMVGPTGSTLFEELGLYYIGPVDGHNIEDLVCVLREVSSLDSMGPVLVHVITEGNRDAETVKNIMVKDRRTYSDCFVEALVMEAEKDRDIVVVHAGMEMDPSLLTFQERFPDRFFNVGMAEQHAVTFSAGLSSGGLKPFCIIPSAFLQRAYDQVVHDVDRQRKAVRFVITSAGLVGSDGPVQCGAFDIAFMSSLPNMIAMAPADEDELVNMVATAAYVTDRPVCFRFPRGSIVNMNYLVPTGLPIEIGRGRVLVEGQDVALLGYGAMVQNCLHAHSLLSKLGLNVTVADARFCKPLDIKLVRDLCQNHKFLITVEEGCVGGFGSHVAQFIALDGQLDGNIKWRPIVLPDGYIEEASPREQLALAGLTGHHIAATALSLLGRTREALLLMS”, the protein production result was “failed”.

Consider “MGSGPELTQTSLETLQEALQTERITYVDTLNEDIGAVVESADQLAFDYVVGDVSDYGVSSNDHVHLDLVHEGSTIHCVLFGYKRSAIDATIEDGMQVAVKGSLSYYEDGGNVSVIVEDIVEVGEGTYQRIYEQNRQLLDSDGLLDPEHKQALPDFPERIGIATSATSDARMDAITSIHERYPDVDIVIQNTSVQGDDAMMSIMGAISELDDDPRVDVIVLTRGGGSDKHLRVFNETPLCRVIHKTETPVVVGVGHENDRTLADEVADRRVMTPTEAGNIVPERTTLEAELETLEERLNTAYTETAETTLETMDDRLTRAYRRTVESDLSAFEAELDRTYDTHVRDELTDLANRLEQARTQYDQQREREQEVAAHRRQRRRLLLILVALGLLVVALLLYILLPL”, for which the protein production entry is “failed”.

“MGSLQPDAGNASWNGTEAPGGGARATPYSLQVTLTLVCLAGLLMLLTVFGNVLVIIAVFTSRALKAPQNLFLVSLASADILVATLVIPFSLANEVMGYWYFGKAWCEIYLALDVLFCTSSIVHLCAISLDRYWSITQAIEYNLKRTPRRIKAIIITVWVISAVISFPPLISIEKKGGGGGPQPAEPRCEINDQKWYVISSCIGSFFAPCLIMILVYVRIYQIAKRRTRVPPSRRGPDAVAAPPGGTERRPNGLGPERSAGPGGAEAEPLPTQLNGAPGEPAPAGPRDTDALDLEESSSSDHAERPPGPRRPERGPRGKGKARASQVKPGDSLPRRGPGATGIGTPAAGPGEERVGAAKASRWRGRQNREKRFTFVLAVVIGVFVVCWFPFFFTYTLTAVGCSVPRTLFKFFFWFGYCNSSLNPVIYTIFNHDFRRAFKKILCRGDRKRIV”: the protein production entry is “failed”.

In the case of “MGSPNINGNTAKLVNAILDGAAEKRAEKVIYNLASLNIKGCDACFRCQKSGCCAIDDDMQELYHEIQAADTIVLGSPVYMWQMTAQTKLLIDRLTAFLKPDFSSRLDNKKLILVFSQGSPDRDAFKPYFEYTAGLLYYLGFDVLETVIAAGTDNLEVSFRPKLLENARELGRLVSTSPLTGPEFKKDEPSLTPLL”, the protein production entry is “failed”.

As for “MGSSHHHHHHENLYFQGSNIAFYVVSDVHGYIFPTDFTSRNQYQPMGLLLANHVIEQDRRQYDQSFKIDNGDFLQGSPFCNYLIAHSGSSQPLVDFYNRMAFDFGTLGNHEFNYGLPYLKDTLRRLNYPVLCANIYENDSTLTDNGVKYFQVGDQTVGVIGLTTQFIPHWEQPEHIQSLTFHSAFEILQQYLPEMKRHADIIVVCYHGGFEKDLESGTPTEVLTGENEGYAMLEAFSKDIDIFITGHQHRQIAERFKQTAVIQPGTRGTTVGRVVLSTDEYENLSVESCELLPVIDDSTFTIDEDDQHLRKQLEDWLDYEITTLPYDMTINHAFEARVAPHPFTNFMNYALLEKSDADVACTALFDSASGFKQVVTMRDVINNYPFPNTFKVLAVSGAKLKEAIERSAEYFDVKNDEVSVSADFLEPKPQHFNYDIYGGVSYTIHVGRPKGQRVSNMMIQGHAVDLKQTYTICVNNYRAVGGGQYDMYIDAPVVKDIQVEGAQLLIDFLSNNNLMRIPQVVDFKVEK”, the protein production result is reported as “not failed”.

Regarding “MGSSHHHHHHSSGLVPRGSHMLLREVTREERKNFYTNEWKVKDIPDFIVKTLELREFGFDHSGEGPSDRKNQYTDIRDLEDYIRATAPYAVYSSVALYEKPQEMEGWLGTELVFDIDAKDLPLRRCEHEPGTVCPICLNDAKEIVRDTVIILREELGFNDIHIIYSGRGYHIRVLDEWALKLDSKSRERILSFVSASEIEDVEEFRKLLLNKRGWFVLNHGYPRAFRLRFGYFILRIKLPHLINAGIRKSIAKSILKSKEEIYEEFVRKAILAAFPQGVGIESLAKLFALSTRFSKSYFDGRVTVDLKRILRLPSTLHSKVGLIAKYVGTNERDVMRFNPFKHAVPKFRKEEVKVEYKKFLESLGT”, the protein production result is recorded as “not failed”.

“MGSSHHHHHHSSGLVPRGSTETSQQLQLRVQGKEKHQTLEVSLSRDSPLKTLMSHYEEAMGLSGRKLSFFFDGTKLSGRELPADLGMESGDLIEVWG”: the protein production entry is “not failed”.

For “MGSSHHHHHHSSGRENLYFQGGAGTSAAMRQATSPKTILEYIINFFTCGGIRRRNETQYQELIETMAETLKSTMPDRGAPLPENIILDDMDGCRVEFNLPGENNEAGQVIVRVSKGDHSETREIPLASFEKICRALLFRCEFSLPQDSVILTAQGGMNLKGAVLTGANLTS”, the protein production entry was “not failed”.

In the case of “MGSSHHHHHHSSGRENLYFQGMAGGKSMNVESYEKILRDRQRELYRRLHKIEADFEEPRNPDDEDRASERSNDEVLDELGQVGQDELRAIDAALARIASGTFGTCVKCGKRISEDRLKAVPYTPFCQECAAAL”, the protein production result was “not failed”.
